Test results published in publication PMC9898751.

What was measured:
[1] = target: PHF2(1–451), N-terminal half of human PHF2 with the PHD and Jumonji domains (residues 1–451) (human) (UniProt O75151); assay: ITC
[2] = target: PHF2(1–70), PHD domain of human PHF2 (residues 1–70) (human) (UniProt O75151); assay: ITC
Chain of PHF2(1–70), PHD domain of human PHF2 (residues 1–70) (human) (O75151 1-70): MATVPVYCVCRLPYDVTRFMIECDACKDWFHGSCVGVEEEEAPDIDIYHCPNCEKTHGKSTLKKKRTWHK

Chain of PHF2(1–451), N-terminal half of human PHF2 with the PHD and Jumonji domains (residues 1–451) (human) (O75151 1-451): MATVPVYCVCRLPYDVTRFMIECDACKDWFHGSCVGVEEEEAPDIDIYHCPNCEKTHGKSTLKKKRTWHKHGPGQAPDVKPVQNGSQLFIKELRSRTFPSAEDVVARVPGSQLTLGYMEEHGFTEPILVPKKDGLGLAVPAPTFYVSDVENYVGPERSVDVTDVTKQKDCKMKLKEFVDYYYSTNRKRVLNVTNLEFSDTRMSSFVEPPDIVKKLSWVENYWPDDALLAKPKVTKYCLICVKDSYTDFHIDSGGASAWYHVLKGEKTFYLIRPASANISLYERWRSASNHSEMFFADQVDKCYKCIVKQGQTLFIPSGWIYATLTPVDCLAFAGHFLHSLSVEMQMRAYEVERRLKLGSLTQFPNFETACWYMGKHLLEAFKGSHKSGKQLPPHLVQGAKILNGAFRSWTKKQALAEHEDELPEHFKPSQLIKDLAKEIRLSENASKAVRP

VRK1(1-12)K4me3 peptide (12-mer of the N-terminus of vaccinia-related kinase 1, trimethylated at lysine 4)
Kd [1]: 42 nM | Kd [2]: 900 nM
